Test results taken from PMC6917914 (Nature chemical biology, 2019).

Biological target: His6-DDA1 (full-length human DDA1) (human, UniProt Q9BW61 1-102)
Experiment: crystal structure

binding result: binds
B1: DCAF15_(split) (Strep II Avi-DCAF15 NTD residues 30-264 with Strep II Avi-DCAF15 CTD residues 383-600) (domain or fragment)
chain 1: GRRREHVLKQLERVKISGQLSPRLFRKLPPRVCVSLKNIVDEDFLYAGHIFLGFSKCGRYVLSYTSSSGDDDFSFYIYHLYWWEFNVHSKLKLVRQVRLFQDEEIYSDLYLTVCEWPSDASKVIVFGFNTRSANGMLMNMMMMSDENHRDIYVSTVAVPPPGRCAACQDASRAHPGDPNAQCLRHGFMLHTKYQVVYPFPTFQPAFQLKKDQVVLLNTSYSLVACAVSVHSAGDR
chain 2: EPGYVNYTKLYYVLESGEGTEPEDELEDDKISLPFVVTDLRGRNLRPMRERTAVQGQYLTVEQLTLDFEYVINEVIRHDATWGHQFCSFSDYDIVILEVCPETNQVLINIGLLLLAFPSPTEEGQLRPKTYHTSLKVAWDLNTGIFETVSVGDLTEVKGQTSGSVWSSYRKSCVDMVMKWLVPESSGRYVNRMTNEALHKGCSLKVLADSERYTWIVL
